Results: patent US20210388087A1 (Chugai, published 2021)

B1: H183/L072 VH K52bF (antibody, name in Kabat numbering, V domains shown)
VH: QVQLVESGGGLVQPGRSLRLSCAASGFTFSNAWMHWVRQAPGKGLEWVAQIKDFGNAYAAYYAPSVKGRFTISRDDSKNSIYLQMNSLKTEDTAVYYCHYVHYASASTVLPAFGVDAWGQGTTVTVSS
VL: DIVMTQSPLSLPVTPGEPASISCQASQELVHMNRNTYLHWYQQKPGQAPRLLIYKVSNRFPGVPDRFSGSGSGTDFTLKISRVEAEDVGVYYCAQGTSVPFTFGQGTKLEIK
B2: H183/L072 VH K52bT (antibody, name in Kabat numbering, V domains shown)
VH: QVQLVESGGGLVQPGRSLRLSCAASGFTFSNAWMHWVRQAPGKGLEWVAQIKDTGNAYAAYYAPSVKGRFTISRDDSKNSIYLQMNSLKTEDTAVYYCHYVHYASASTVLPAFGVDAWGQGTTVTVSS
VL: DIVMTQSPLSLPVTPGEPASISCQASQELVHMNRNTYLHWYQQKPGQAPRLLIYKVSNRFPGVPDRFSGSGSGTDFTLKISRVEAEDVGVYYCAQGTSVPFTFGQGTKLEIK
B3: H183/L072 VH K52bS (antibody, name in Kabat numbering, V domains shown)
VH: QVQLVESGGGLVQPGRSLRLSCAASGFTFSNAWMHWVRQAPGKGLEWVAQIKDSGNAYAAYYAPSVKGRFTISRDDSKNSIYLQMNSLKTEDTAVYYCHYVHYASASTVLPAFGVDAWGQGTTVTVSS
VL: DIVMTQSPLSLPVTPGEPASISCQASQELVHMNRNTYLHWYQQKPGQAPRLLIYKVSNRFPGVPDRFSGSGSGTDFTLKISRVEAEDVGVYYCAQGTSVPFTFGQGTKLEIK
B4: H183/L072 VH K52bW (antibody, name in Kabat numbering, V domains shown)
VH: QVQLVESGGGLVQPGRSLRLSCAASGFTFSNAWMHWVRQAPGKGLEWVAQIKDWGNAYAAYYAPSVKGRFTISRDDSKNSIYLQMNSLKTEDTAVYYCHYVHYASASTVLPAFGVDAWGQGTTVTVSS
VL: DIVMTQSPLSLPVTPGEPASISCQASQELVHMNRNTYLHWYQQKPGQAPRLLIYKVSNRFPGVPDRFSGSGSGTDFTLKISRVEAEDVGVYYCAQGTSVPFTFGQGTKLEIK
B5: H183/L072 VH K52bL (antibody, name in Kabat numbering, V domains shown)
VH: QVQLVESGGGLVQPGRSLRLSCAASGFTFSNAWMHWVRQAPGKGLEWVAQIKDLGNAYAAYYAPSVKGRFTISRDDSKNSIYLQMNSLKTEDTAVYYCHYVHYASASTVLPAFGVDAWGQGTTVTVSS
VL: DIVMTQSPLSLPVTPGEPASISCQASQELVHMNRNTYLHWYQQKPGQAPRLLIYKVSNRFPGVPDRFSGSGSGTDFTLKISRVEAEDVGVYYCAQGTSVPFTFGQGTKLEIK
B6: H183/L072 VH K52bR (antibody, name in Kabat numbering, V domains shown)
VH: QVQLVESGGGLVQPGRSLRLSCAASGFTFSNAWMHWVRQAPGKGLEWVAQIKDRGNAYAAYYAPSVKGRFTISRDDSKNSIYLQMNSLKTEDTAVYYCHYVHYASASTVLPAFGVDAWGQGTTVTVSS
VL: DIVMTQSPLSLPVTPGEPASISCQASQELVHMNRNTYLHWYQQKPGQAPRLLIYKVSNRFPGVPDRFSGSGSGTDFTLKISRVEAEDVGVYYCAQGTSVPFTFGQGTKLEIK
B7: H183/L072 VH K64M (antibody, name in Kabat numbering, V domains shown)
VH: QVQLVESGGGLVQPGRSLRLSCAASGFTFSNAWMHWVRQAPGKGLEWVAQIKDKGNAYAAYYAPSVMGRFTISRDDSKNSIYLQMNSLKTEDTAVYYCHYVHYASASTVLPAFGVDAWGQGTTVTVSS
VL: DIVMTQSPLSLPVTPGEPASISCQASQELVHMNRNTYLHWYQQKPGQAPRLLIYKVSNRFPGVPDRFSGSGSGTDFTLKISRVEAEDVGVYYCAQGTSVPFTFGQGTKLEIK
B8: H183/L072 VH K64A (antibody, name in Kabat numbering, V domains shown)
VH: QVQLVESGGGLVQPGRSLRLSCAASGFTFSNAWMHWVRQAPGKGLEWVAQIKDKGNAYAAYYAPSVAGRFTISRDDSKNSIYLQMNSLKTEDTAVYYCHYVHYASASTVLPAFGVDAWGQGTTVTVSS
VL: DIVMTQSPLSLPVTPGEPASISCQASQELVHMNRNTYLHWYQQKPGQAPRLLIYKVSNRFPGVPDRFSGSGSGTDFTLKISRVEAEDVGVYYCAQGTSVPFTFGQGTKLEIK
B9: H183/L072 VH K64P (antibody, name in Kabat numbering, V domains shown)
VH: QVQLVESGGGLVQPGRSLRLSCAASGFTFSNAWMHWVRQAPGKGLEWVAQIKDKGNAYAAYYAPSVPGRFTISRDDSKNSIYLQMNSLKTEDTAVYYCHYVHYASASTVLPAFGVDAWGQGTTVTVSS
VL: DIVMTQSPLSLPVTPGEPASISCQASQELVHMNRNTYLHWYQQKPGQAPRLLIYKVSNRFPGVPDRFSGSGSGTDFTLKISRVEAEDVGVYYCAQGTSVPFTFGQGTKLEIK
B10: H183/L072 VH K52bY (antibody, name in Kabat numbering, V domains shown)
VH: QVQLVESGGGLVQPGRSLRLSCAASGFTFSNAWMHWVRQAPGKGLEWVAQIKDYGNAYAAYYAPSVKGRFTISRDDSKNSIYLQMNSLKTEDTAVYYCHYVHYASASTVLPAFGVDAWGQGTTVTVSS
VL: DIVMTQSPLSLPVTPGEPASISCQASQELVHMNRNTYLHWYQQKPGQAPRLLIYKVSNRFPGVPDRFSGSGSGTDFTLKISRVEAEDVGVYYCAQGTSVPFTFGQGTKLEIK
B11: H183/L072 VH K52bM (antibody, name in Kabat numbering, V domains shown)
VH: QVQLVESGGGLVQPGRSLRLSCAASGFTFSNAWMHWVRQAPGKGLEWVAQIKDMGNAYAAYYAPSVKGRFTISRDDSKNSIYLQMNSLKTEDTAVYYCHYVHYASASTVLPAFGVDAWGQGTTVTVSS
VL: DIVMTQSPLSLPVTPGEPASISCQASQELVHMNRNTYLHWYQQKPGQAPRLLIYKVSNRFPGVPDRFSGSGSGTDFTLKISRVEAEDVGVYYCAQGTSVPFTFGQGTKLEIK
B12: H183/L072 VH K52bQ (antibody, name in Kabat numbering, V domains shown)
VH: QVQLVESGGGLVQPGRSLRLSCAASGFTFSNAWMHWVRQAPGKGLEWVAQIKDQGNAYAAYYAPSVKGRFTISRDDSKNSIYLQMNSLKTEDTAVYYCHYVHYASASTVLPAFGVDAWGQGTTVTVSS
VL: DIVMTQSPLSLPVTPGEPASISCQASQELVHMNRNTYLHWYQQKPGQAPRLLIYKVSNRFPGVPDRFSGSGSGTDFTLKISRVEAEDVGVYYCAQGTSVPFTFGQGTKLEIK
B13: H183/L072 VH K52bP (antibody, name in Kabat numbering, V domains shown)
VH: QVQLVESGGGLVQPGRSLRLSCAASGFTFSNAWMHWVRQAPGKGLEWVAQIKDPGNAYAAYYAPSVKGRFTISRDDSKNSIYLQMNSLKTEDTAVYYCHYVHYASASTVLPAFGVDAWGQGTTVTVSS
VL: DIVMTQSPLSLPVTPGEPASISCQASQELVHMNRNTYLHWYQQKPGQAPRLLIYKVSNRFPGVPDRFSGSGSGTDFTLKISRVEAEDVGVYYCAQGTSVPFTFGQGTKLEIK
B14: H183/L072 VH K52bI (antibody, name in Kabat numbering, V domains shown)
VH: QVQLVESGGGLVQPGRSLRLSCAASGFTFSNAWMHWVRQAPGKGLEWVAQIKDIGNAYAAYYAPSVKGRFTISRDDSKNSIYLQMNSLKTEDTAVYYCHYVHYASASTVLPAFGVDAWGQGTTVTVSS
VL: DIVMTQSPLSLPVTPGEPASISCQASQELVHMNRNTYLHWYQQKPGQAPRLLIYKVSNRFPGVPDRFSGSGSGTDFTLKISRVEAEDVGVYYCAQGTSVPFTFGQGTKLEIK
B15: H183/L072 VH L100dA (antibody, name in Kabat numbering, V domains shown)
VH: QVQLVESGGGLVQPGRSLRLSCAASGFTFSNAWMHWVRQAPGKGLEWVAQIKDKGNAYAAYYAPSVKGRFTISRDDSKNSIYLQMNSLKTEDTAVYYCHYVHYASASTVAPAFGVDAWGQGTTVTVSS
VL: DIVMTQSPLSLPVTPGEPASISCQASQELVHMNRNTYLHWYQQKPGQAPRLLIYKVSNRFPGVPDRFSGSGSGTDFTLKISRVEAEDVGVYYCAQGTSVPFTFGQGTKLEIK
B16: H183/L072 VH K64L (antibody, name in Kabat numbering, V domains shown)
VH: QVQLVESGGGLVQPGRSLRLSCAASGFTFSNAWMHWVRQAPGKGLEWVAQIKDKGNAYAAYYAPSVLGRFTISRDDSKNSIYLQMNSLKTEDTAVYYCHYVHYASASTVLPAFGVDAWGQGTTVTVSS
VL: DIVMTQSPLSLPVTPGEPASISCQASQELVHMNRNTYLHWYQQKPGQAPRLLIYKVSNRFPGVPDRFSGSGSGTDFTLKISRVEAEDVGVYYCAQGTSVPFTFGQGTKLEIK
B17: H183/L072 VH K52bH (antibody, name in Kabat numbering, V domains shown)
VH: QVQLVESGGGLVQPGRSLRLSCAASGFTFSNAWMHWVRQAPGKGLEWVAQIKDHGNAYAAYYAPSVKGRFTISRDDSKNSIYLQMNSLKTEDTAVYYCHYVHYASASTVLPAFGVDAWGQGTTVTVSS
VL: DIVMTQSPLSLPVTPGEPASISCQASQELVHMNRNTYLHWYQQKPGQAPRLLIYKVSNRFPGVPDRFSGSGSGTDFTLKISRVEAEDVGVYYCAQGTSVPFTFGQGTKLEIK
B18: H183/L072 VH K52bG (antibody, name in Kabat numbering, V domains shown)
VH: QVQLVESGGGLVQPGRSLRLSCAASGFTFSNAWMHWVRQAPGKGLEWVAQIKDGGNAYAAYYAPSVKGRFTISRDDSKNSIYLQMNSLKTEDTAVYYCHYVHYASASTVLPAFGVDAWGQGTTVTVSS
VL: DIVMTQSPLSLPVTPGEPASISCQASQELVHMNRNTYLHWYQQKPGQAPRLLIYKVSNRFPGVPDRFSGSGSGTDFTLKISRVEAEDVGVYYCAQGTSVPFTFGQGTKLEIK
B19: H183/L072 VH K64I (antibody, name in Kabat numbering, V domains shown)
VH: QVQLVESGGGLVQPGRSLRLSCAASGFTFSNAWMHWVRQAPGKGLEWVAQIKDKGNAYAAYYAPSVIGRFTISRDDSKNSIYLQMNSLKTEDTAVYYCHYVHYASASTVLPAFGVDAWGQGTTVTVSS
VL: DIVMTQSPLSLPVTPGEPASISCQASQELVHMNRNTYLHWYQQKPGQAPRLLIYKVSNRFPGVPDRFSGSGSGTDFTLKISRVEAEDVGVYYCAQGTSVPFTFGQGTKLEIK
B20: H183/L072 VH K52bN (antibody, name in Kabat numbering, V domains shown)
VH: QVQLVESGGGLVQPGRSLRLSCAASGFTFSNAWMHWVRQAPGKGLEWVAQIKDNGNAYAAYYAPSVKGRFTISRDDSKNSIYLQMNSLKTEDTAVYYCHYVHYASASTVLPAFGVDAWGQGTTVTVSS
VL: DIVMTQSPLSLPVTPGEPASISCQASQELVHMNRNTYLHWYQQKPGQAPRLLIYKVSNRFPGVPDRFSGSGSGTDFTLKISRVEAEDVGVYYCAQGTSVPFTFGQGTKLEIK
B21: H183/L072 VH K52bV (antibody, name in Kabat numbering, V domains shown)
VH: QVQLVESGGGLVQPGRSLRLSCAASGFTFSNAWMHWVRQAPGKGLEWVAQIKDVGNAYAAYYAPSVKGRFTISRDDSKNSIYLQMNSLKTEDTAVYYCHYVHYASASTVLPAFGVDAWGQGTTVTVSS
VL: DIVMTQSPLSLPVTPGEPASISCQASQELVHMNRNTYLHWYQQKPGQAPRLLIYKVSNRFPGVPDRFSGSGSGTDFTLKISRVEAEDVGVYYCAQGTSVPFTFGQGTKLEIK

Molecular target: T1, Human CD137 ECD (human)
T1 construct: also called 4-1BB
Test: single mutant vs template dBBDu183H

T1 sequence (chain, as listed by the source limits assumed): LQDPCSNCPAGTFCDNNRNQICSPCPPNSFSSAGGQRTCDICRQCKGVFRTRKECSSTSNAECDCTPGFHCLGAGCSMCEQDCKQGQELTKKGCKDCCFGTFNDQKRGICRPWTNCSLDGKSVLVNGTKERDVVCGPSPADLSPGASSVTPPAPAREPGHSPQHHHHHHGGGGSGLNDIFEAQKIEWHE

In order of falling “fold change of affinity” value:
1. B6  1.2 fold
2. B8  1.2 fold
3. B7  1.1 fold
4. B16  1.1 fold
5. B19  1.1 fold
6. B10  1 fold
7. B4  0.9 fold
8. B18  0.9 fold
9. B3  0.8 fold
10. B12  0.8 fold
11. B14  0.8 fold
12. B15  0.8 fold
13. B1  0.7 fold
14. B9  0.7 fold
15. B17  0.7 fold
16. B11  0.6 fold
17. B21  0.6 fold
18. B5  0.5 fold
19. B13  0.4 fold
20. B20  0.2 fold
21. B2  0.1 fold
